Assay results as given in paper PMC11589706, “Cryo-EM structure of PML RBCC dimer reveals CC-mediated octopus-like nuclear body assembly mechanism” (Cell Discovery, 2024).

Experiments:
[1] = target: the molecule itself; assay: SEC; analytical size exclusion on Superdex 200 Increase 10/300 GL in 20 mM HEPES, pH 7.4, 100 mM NaCl, 4% glycerol; all truncations N-terminally fused to MBP
[2] = target: the molecule itself; assay: cross-linking; XL-MS: purified SEC fractions crosslinked with 2 mM BS3 at 4 °C for 2 h; trypsin digest, LC-MS/MS, pLink2; intra-subunit XLs of the monomer fraction subtracted from those of the dimer
[3] = target: the molecule itself; assay: cryo-EM structure; MBP-PML_(46–256) dimer fraction from SEC, ~3 mg/mL; non-tilt and 40°-tilt data; C2 symmetry imposed; 5.3 Å overall

B1: MBP-PML_(46–391) (domain or fragment, human, UniProt P29590 46-391, looked up)
chain: PASEEEFQFLRCQQCQAEAKCPKLLPCLHTLCSGCLEASGMQCPICQAPWPLGADTPALDNVFFESLQRRLSVYRQIVDAQAVCTRCKESADFWCFECEQLLCAKCFEAHQWFLKHEARPLAELRNQSVREFLDGTRKTNNIFCSNPNHRTPTLTSIYCRGCSKPLCCSCALLDSSHSELKCDISAEIQQRQEELDAMTQALQEQDSAFGAVHAQMHAAVGQLGRARAETEELIRERVRQVVAHVRAQERELLEAVDARYQRDYEEMASRLGRLDAVLQRIRTGSALVQRMKCYASDQEVLDMHGFLRQALCRLRQEEPQSLQAAVRTDGFDEFKVRLQDLSSCIT
notes: source: E. coli BL21(DE3), purified; not shown: MBP, N-terminal, kept
binding result [1]: binds

B2: PML_(46–362) (domain or fragment, human, UniProt P29590 46-362, looked up)
chain: PASEEEFQFLRCQQCQAEAKCPKLLPCLHTLCSGCLEASGMQCPICQAPWPLGADTPALDNVFFESLQRRLSVYRQIVDAQAVCTRCKESADFWCFECEQLLCAKCFEAHQWFLKHEARPLAELRNQSVREFLDGTRKTNNIFCSNPNHRTPTLTSIYCRGCSKPLCCSCALLDSSHSELKCDISAEIQQRQEELDAMTQALQEQDSAFGAVHAQMHAAVGQLGRARAETEELIRERVRQVVAHVRAQERELLEAVDARYQRDYEEMASRLGRLDAVLQRIRTGSALVQRMKCYASDQEVLDMHGFLRQALCRLRQE
notes: PML (TRIM19), human, residues 46-362, the complete RBCC domain; also called truncated protein PML_(46–362); complete RBCC domain; source: E. coli BL21(DE3), purified; not shown: MBP, N-terminal, cleaved
binding result [2]: binds

B3: MBP-PML_(46–362) (domain or fragment, human, UniProt P29590 46-362, looked up)
chain: PASEEEFQFLRCQQCQAEAKCPKLLPCLHTLCSGCLEASGMQCPICQAPWPLGADTPALDNVFFESLQRRLSVYRQIVDAQAVCTRCKESADFWCFECEQLLCAKCFEAHQWFLKHEARPLAELRNQSVREFLDGTRKTNNIFCSNPNHRTPTLTSIYCRGCSKPLCCSCALLDSSHSELKCDISAEIQQRQEELDAMTQALQEQDSAFGAVHAQMHAAVGQLGRARAETEELIRERVRQVVAHVRAQERELLEAVDARYQRDYEEMASRLGRLDAVLQRIRTGSALVQRMKCYASDQEVLDMHGFLRQALCRLRQE
notes: PML (TRIM19), human, residues 46-362; source: E. coli BL21(DE3), purified; not shown: MBP, N-terminal, kept
binding result [1]: binds

B4: MBP-PML_(46–256) (domain or fragment, human, UniProt P29590 46-256, looked up)
chain: PASEEEFQFLRCQQCQAEAKCPKLLPCLHTLCSGCLEASGMQCPICQAPWPLGADTPALDNVFFESLQRRLSVYRQIVDAQAVCTRCKESADFWCFECEQLLCAKCFEAHQWFLKHEARPLAELRNQSVREFLDGTRKTNNIFCSNPNHRTPTLTSIYCRGCSKPLCCSCALLDSSHSELKCDISAEIQQRQEELDAMTQALQEQDSAFGA
notes: Monomer and dimer fractions were separated by SEC; The cryo-EM model covers P46-S221; also called PML RBCC fragment; PML RBCC dimer; source: E. coli BL21(DE3), purified (amylose column, Superdex 200 Increase SEC); not shown: MBP, N-terminal, kept
stoichiometry N [3]: 2
